In publication PMC4458873:

Biological target: Purified recombinant Syrian hamster vimentin (Syrian hamster) (UniProt P02544)
Assay: cross-linking; vimentin at 3 μM, preincubated without or with 150 mM NaCl, 20 μM DBB for 1 h at 37 °C; 7.5% SDS-PAGE and WB

fold cross-linked dimer, polymerized versus non-polymerized vimentin: 3.9 fold
Substance: Purified recombinant Syrian hamster vimentin (from UniProt P02544 1-465) (natural protein)
